B1: CPEB3 Ribozyme (parent)
chain: UAACAGGGGGCCACAGCAGAAGCGUUCACGUCGCAGCCCCUGUCAGAUUCUGGUGAAUCUGCGAAUUCUGCUGUAUAUCUC

Variants of: B1
Experiment: self-cleavage, relative activity (ratio to wild type); higher = more cleavage; in vitro, sequencing
In short: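 Barcoded CPEB3 ribozyme mutants, produced by rounds of error-prone PCR, self-cleaved while being transcribed with T7 RNA polymerase for 5 hours at 37°C and during a subsequent 15 min DNase I step before EDTA was added. Sequencing of template-switched cDNA on Illumina gave cleaved and total reads, and DNA sequencing assigned barcodes to variants. Each variant's relative activity is its cleaved/total read fraction divided by the unmutated ribozyme's fraction, averaged across three batches. A variant needed a minimum of 5 reads.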

| Variant | self-cleavage |
| --- | --- |
| A18U U41A | 0.22 |
| A18U U41C | 0.38 |
| G19A A20U | 0.11 |
| A18U C32G | 0.17 |
| A18U C32A | 0.17 |
| A18U C32U | 0.08 |
| A18U U60C | 0.22 |
| A18U U60A | 0.3 |
| A18U A45U | 0.25 |
| A18U A45G | 0.32 |
| G19A A75G | 0.09 |
| A18U U69A | 1.19 |
| A18U U69C | 0.47 |
| A18U U69G | 1.14 |
| A18U C38U | 0.31 |
| A18U C81G | 0.27 |
| A18U C81A | 0.69 |
| A18U C81U | 0.51 |
| G19A U31A | 0.44 |
| A18U A47G | 0.37 |
| A18U A47U | 0.3 |
| A18U G70U | 0.21 |
| G19A U51A | 0.31 |
| G19A U51C | 0.32 |

| Variant | self-cleavage |
| --- | --- |
| G19A A57G | 0.26 |
| A18U A75G | 0.38 |
| A18U A75U | 0.5 |
| A18U C68A | 0.2 |
| A18U U43C | 0.26 |
| A18U U43A | 0.64 |
| A18U U43G | 0.14 |
| A18U G24A | 0.36 |
| A18U C62A | 0.28 |
| A18U C62G | 0.27 |
| A18U C62U | 0.33 |
| G19A G36C | 0.14 |
| A18U C79A | 0.75 |
| A18U C79U | 0.26 |
| A18U G33A | 0.3 |
| A18U U72A | 0.19 |
| A18U U72G | 0.5 |
| A18U U72C | 0.42 |
| A18U U67C | 0.26 |
| A18U U67G | 0.19 |
| A18U U67A | 0.21 |
| A18U C59G | 0.15 |
| A18U C59A | 0.17 |
| A18U C59U | 0.23 |

| Variant | self-cleavage |
| --- | --- |
| A18U U48A | 0.19 |
| A18U U48C | 0.28 |
| G19A C62U | 0.36 |
| A18U U78C | 0.38 |
| A18U U78A | 0.36 |
| G19A A64G | 0.21 |
| A18U G42C | 0.18 |
| A18U G42A | 0.36 |
| A18U A65G | 0.28 |
| A18U A65U | 0.2 |
| G19A U43A | 0.36 |
| G19A G52A | 0.16 |
| A18U G19U | 0.21 |
| A18U G19C | 0.23 |
| A18U G19A | 0.15 |
| A18U G53A | 0.56 |
| A18U G53U | 0.45 |
| G19A C40G | 0.1 |
| G19A C40U | 0.21 |
| G19A A28G | 0.2 |
| A18U C23U | 0.23 |
| A18U C23A | 0.1 |
| A18U C23G | 0.22 |
| A18U C29U | 0.17 |

| Variant | self-cleavage |
| --- | --- |
| A18U C29A | 0.19 |
| A18U A56C | 0.21 |
| A18U A56G | 0.3 |
| A18U A56U | 0.31 |
| G19A A65G | 0.51 |
| A18U A57G | 0.37 |
| A18U A57U | 0.33 |
| G19A A35U | 0.17 |
| G19A U60G | 0.4 |
| A18U G52U | 0.39 |
| A18U G52A | 0.39 |
| G19A C39A | 0.11 |
| G19A C39U | 0.33 |
| A18U C44A | 0.15 |
| A18U C44G | 0.24 |
| A18U C44U | 0.2 |
| G19A U41C | 0.22 |
| G19A U66G | 0.51 |
| G19A U66C | 0.44 |
| G19A U66A | 0.13 |
| A18U U76G | 0.3 |
| A18U U76C | 0.39 |
| A18U U76A | 0.36 |
| A18U U51C | 0.42 |

| Variant | self-cleavage |
| --- | --- |
| A18U U51A | 0.41 |
| A18U G36U | 0.19 |
| G19A A56G | 0.2 |
| G19A A56U | 0.12 |
| A18U U66A | 0.29 |
| A18U U66C | 0.29 |
| G19A C32A | 0.08 |
| A18U U80G | 0.51 |
| A18U U80A | 0.53 |
| A18U U80C | 0.52 |
| G19A C29G | 0.24 |
| A18U C50A | 0.4 |
| A18U C50U | 0.42 |
| A18U U58C | 0.32 |
| A18U U58A | 0.19 |
| A18U U58G | 0.03 |
| A18U G46U | 0.2 |
| G19A G42A | 0.15 |
| G19A C59U | 0.17 |
| A18U A77G | 0.51 |
| A18U A77U | 0.48 |
| G19A A77G | 0.3 |
| A18U G63U | 0.57 |
| A18U G63A | 0.48 |

| Variant | self-cleavage |
| --- | --- |
| A18U G63C | 0.37 |
| A18U U25G | 0.08 |
| A18U U25C | 0.26 |
| A18U U25A | 0.19 |
| A18U C34U | 0.25 |
| A18U C34A | 0.23 |
| A18U C39A | 0.24 |
| A18U C39U | 0.3 |
| A18U U54G | 0.34 |
| A18U U54A | 0.54 |
| A18U U54C | 0.32 |
| A18U G61C | 0.14 |
| A18U G61U | 0.28 |
| A18U G61A | 0.3 |
| A18U G73A | 0.61 |
| A18U G73C | 0.49 |
| G19A U49C | 0.1 |
| G19A A45U | 0.07 |
| G19A A45G | 0.25 |
| A18U U26A | 0.31 |
| A18U U26C | 0.26 |
| A18U U26G | 0.07 |
| G19A U25C | 0.13 |
| G19A U25A | 0.28 |

| Variant | self-cleavage |
| --- | --- |
| A18U G22U | 0.24 |
| A18U U49A | 0.38 |
| A18U U49C | 0.22 |
| A18U U74A | 0.62 |
| A18U U74C | 0.61 |
| A18U U31A | 0.3 |
| A18U U31C | 0.26 |
| A18U U31G | 0.17 |
| G19A U67A | 0.07 |
| A18U C40U | 0.45 |
| A18U C40A | 0.13 |
| A18U C40G | 0.18 |
| G19A | 0.29 |
| G19A U54C | 0.23 |
| A18U G30A | 0.15 |
| A18U G30U | 0.17 |
| A18U G55A | 0.29 |
| A18U G55U | 0.41 |
| G19A U26C | 0.31 |
| G19A A21U | 0.1 |
| A18U A64G | 0.31 |
| A18U A64U | 0.28 |
| G19A U48C | 0.16 |

— the RNAGym collection of RNA variant scans (doi:10.1093/nar/gkz1192)
